Assay results taken from patent US11833164B2, “Methods of treating Fabry disease in patients having a mutation in the GLA gene” (Amicus Therapeutics, Inc., priority 2019, dated 2023).

Tested on: mutant form of α-Gal A expressed in HEK-293 cells
Assay: HEK assay (GLP HEK / Migalastat Amenability Assay): α-Gal A activity in lysates of transiently transfected HEK-293 cells incubated with or without 10 μM migalastat
Assay type: cell-based, human
Settings: for Absolute increase (% WT): 10 μM migalastat versus baseline; for Relative increase: 10 μM migalastat α-Gal A activity relative to baseline; for 10 μM migalastat α-Gal A activity (% WT): 5 days; for 10 μM migalastat α-Gal A activity (% WT) / Baseline α-Gal A activity (% WT): percentage of baseline wild-type α-Gal A activity; for 10 μM migalastat α-Gal A activity (% WT) / Baseline α-Gal A activity (% WT) / Baseline α-Gal A activity / 10 μM migalastat α-Gal A activity: mean ± SEM; for Baseline α-Gal A activity (% WT): absence of migalastat; for Baseline α-Gal A activity / 10 μM migalastat α-Gal A activity: lysates of HEK-293 cells transfected with the mutant form; for Baseline α-Gal A activity: incubated 5 days in the absence of migalastat; for 10 μM migalastat α-Gal A activity: incubated 5 days with 10 μM migalastat
Procedure, shortened: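 HEK-293 cells transiently transfected with mutant α-Gal A and incubated with or without 10 μM migalastat; lysate activity given as nmol free 4-MU released per mg protein per hour. Values are mean±SEM.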

B1: Y151S (protein)
chain: MQLRNPELHLGCALALRFLALVSWDIPGARALDNGLARTPTMGWLHWERFMCNLDCQEEPDSCISEKLFMEMAELMVSEGWKDAGYEYLCIDDCWMAPQRDSEGRLQADPQRFPHGIRQLANYVHSKGLKLGIYADVGNKTCAGFPGSFGSYDIDAQTFADWGVDLLKFDGCYCDSLENLADGYKHMSLALNRTGRSIVYSCEWPLYMWPFQKPNYTEIRQYCNHWRNFADIDDSWKSIKSILDWTSFNQERIVDVAGPGGWNDPDMLVIGNFGLSWNQQVTQMALWAIMAAPLFMSNDLRHISPQAKALLQDKDVIAINQDPLGKQGYQLRQGDNFEVWERPLSGLAWAVAMINRQEIGGPRSYTIAVASLGKGVACNPACFITQLLPVKRKLGFYEWTSRLRSHINPTGTVLLQLENTMQMSLKDLL
  Absolute increase (% WT): 22.2 % WT
  Relative increase: 1.3
  10 μM migalastat α-Gal A activity (% WT): 107 ± 4.9 % WT
  Baseline α-Gal A activity (% WT): 84.8 ± 4.2 % WT
  Baseline α-Gal A activity: 30047 ± 1943 nmol/mg/h
  10 μM migalastat α-Gal A activity: 37527 ± 2003 nmol/mg/h

B2: D153H (protein)
chain: MQLRNPELHLGCALALRFLALVSWDIPGARALDNGLARTPTMGWLHWERFMCNLDCQEEPDSCISEKLFMEMAELMVSEGWKDAGYEYLCIDDCWMAPQRDSEGRLQADPQRFPHGIRQLANYVHSKGLKLGIYADVGNKTCAGFPGSFGYYHIDAQTFADWGVDLLKFDGCYCDSLENLADGYKHMSLALNRTGRSIVYSCEWPLYMWPFQKPNYTEIRQYCNHWRNFADIDDSWKSIKSILDWTSFNQERIVDVAGPGGWNDPDMLVIGNFGLSWNQQVTQMALWAIMAAPLFMSNDLRHISPQAKALLQDKDVIAINQDPLGKQGYQLRQGDNFEVWERPLSGLAWAVAMINRQEIGGPRSYTIAVASLGKGVACNPACFITQLLPVKRKLGFYEWTSRLRSHINPTGTVLLQLENTMQMSLKDLL
  Absolute increase (% WT): 20.5 % WT
  Relative increase: 1.3
  10 μM migalastat α-Gal A activity (% WT): 81 ± 2.1 % WT
  Baseline α-Gal A activity (% WT): 60.5 ± 2.2 % WT
  Baseline α-Gal A activity: 23578 ± 1741 nmol/mg/h
  10 μM migalastat α-Gal A activity: 31052 ± 1774 nmol/mg/h

B3: D153A (protein)
chain: MQLRNPELHLGCALALRFLALVSWDIPGARALDNGLARTPTMGWLHWERFMCNLDCQEEPDSCISEKLFMEMAELMVSEGWKDAGYEYLCIDDCWMAPQRDSEGRLQADPQRFPHGIRQLANYVHSKGLKLGIYADVGNKTCAGFPGSFGYYAIDAQTFADWGVDLLKFDGCYCDSLENLADGYKHMSLALNRTGRSIVYSCEWPLYMWPFQKPNYTEIRQYCNHWRNFADIDDSWKSIKSILDWTSFNQERIVDVAGPGGWNDPDMLVIGNFGLSWNQQVTQMALWAIMAAPLFMSNDLRHISPQAKALLQDKDVIAINQDPLGKQGYQLRQGDNFEVWERPLSGLAWAVAMINRQEIGGPRSYTIAVASLGKGVACNPACFITQLLPVKRKLGFYEWTSRLRSHINPTGTVLLQLENTMQMSLKDLL
  Absolute increase (% WT): 21.6 % WT
  Relative increase: 1.4
  10 μM migalastat α-Gal A activity (% WT): 81.6 ± 2.3 % WT
  Baseline α-Gal A activity (% WT): 60.1 ± 2.4 % WT
  Baseline α-Gal A activity: 22606 ± 1445 nmol/mg/h
  10 μM migalastat α-Gal A activity: 30854 ± 1997 nmol/mg/h

B4: D153V (protein)
chain: MQLRNPELHLGCALALRFLALVSWDIPGARALDNGLARTPTMGWLHWERFMCNLDCQEEPDSCISEKLFMEMAELMVSEGWKDAGYEYLCIDDCWMAPQRDSEGRLQADPQRFPHGIRQLANYVHSKGLKLGIYADVGNKTCAGFPGSFGYYVIDAQTFADWGVDLLKFDGCYCDSLENLADGYKHMSLALNRTGRSIVYSCEWPLYMWPFQKPNYTEIRQYCNHWRNFADIDDSWKSIKSILDWTSFNQERIVDVAGPGGWNDPDMLVIGNFGLSWNQQVTQMALWAIMAAPLFMSNDLRHISPQAKALLQDKDVIAINQDPLGKQGYQLRQGDNFEVWERPLSGLAWAVAMINRQEIGGPRSYTIAVASLGKGVACNPACFITQLLPVKRKLGFYEWTSRLRSHINPTGTVLLQLENTMQMSLKDLL
  Absolute increase (% WT): 25.0 % WT
  Relative increase: 2.2
  10 μM migalastat α-Gal A activity (% WT): 42.4 ± 1.6 % WT
  Baseline α-Gal A activity (% WT): 17.4 ± 2 % WT
  Baseline α-Gal A activity: 7357 ± 1139 nmol/mg/h
  10 μM migalastat α-Gal A activity: 16301 ± 766 nmol/mg/h

B5: Y152S (protein)
chain: MQLRNPELHLGCALALRFLALVSWDIPGARALDNGLARTPTMGWLHWERFMCNLDCQEEPDSCISEKLFMEMAELMVSEGWKDAGYEYLCIDDCWMAPQRDSEGRLQADPQRFPHGIRQLANYVHSKGLKLGIYADVGNKTCAGFPGSFGYSDIDAQTFADWGVDLLKFDGCYCDSLENLADGYKHMSLALNRTGRSIVYSCEWPLYMWPFQKPNYTEIRQYCNHWRNFADIDDSWKSIKSILDWTSFNQERIVDVAGPGGWNDPDMLVIGNFGLSWNQQVTQMALWAIMAAPLFMSNDLRHISPQAKALLQDKDVIAINQDPLGKQGYQLRQGDNFEVWERPLSGLAWAVAMINRQEIGGPRSYTIAVASLGKGVACNPACFITQLLPVKRKLGFYEWTSRLRSHINPTGTVLLQLENTMQMSLKDLL
  Absolute increase (% WT): 19.6 % WT
  Relative increase: 1.7
  10 μM migalastat α-Gal A activity (% WT): 46.7 ± 2.6 % WT
  Baseline α-Gal A activity (% WT): 27.1 ± 1.7 % WT
  Baseline α-Gal A activity: 9917 ± 917 nmol/mg/h
  10 μM migalastat α-Gal A activity: 16642 ± 1218 nmol/mg/h

B6: Y152F (protein)
chain: MQLRNPELHLGCALALRFLALVSWDIPGARALDNGLARTPTMGWLHWERFMCNLDCQEEPDSCISEKLFMEMAELMVSEGWKDAGYEYLCIDDCWMAPQRDSEGRLQADPQRFPHGIRQLANYVHSKGLKLGIYADVGNKTCAGFPGSFGYFDIDAQTFADWGVDLLKFDGCYCDSLENLADGYKHMSLALNRTGRSIVYSCEWPLYMWPFQKPNYTEIRQYCNHWRNFADIDDSWKSIKSILDWTSFNQERIVDVAGPGGWNDPDMLVIGNFGLSWNQQVTQMALWAIMAAPLFMSNDLRHISPQAKALLQDKDVIAINQDPLGKQGYQLRQGDNFEVWERPLSGLAWAVAMINRQEIGGPRSYTIAVASLGKGVACNPACFITQLLPVKRKLGFYEWTSRLRSHINPTGTVLLQLENTMQMSLKDLL
  Absolute increase (% WT): 11.4 % WT
  Relative increase: 1.3
  10 μM migalastat α-Gal A activity (% WT): 56.8 ± 2.7 % WT
  Baseline α-Gal A activity (% WT): 45.4 ± 2.6 % WT
  Baseline α-Gal A activity: 18675 ± 907 nmol/mg/h
  10 μM migalastat α-Gal A activity: 23612 ± 1095 nmol/mg/h

B7: D153N (protein)
chain: MQLRNPELHLGCALALRFLALVSWDIPGARALDNGLARTPTMGWLHWERFMCNLDCQEEPDSCISEKLFMEMAELMVSEGWKDAGYEYLCIDDCWMAPQRDSEGRLQADPQRFPHGIRQLANYVHSKGLKLGIYADVGNKTCAGFPGSFGYYNIDAQTFADWGVDLLKFDGCYCDSLENLADGYKHMSLALNRTGRSIVYSCEWPLYMWPFQKPNYTEIRQYCNHWRNFADIDDSWKSIKSILDWTSFNQERIVDVAGPGGWNDPDMLVIGNFGLSWNQQVTQMALWAIMAAPLFMSNDLRHISPQAKALLQDKDVIAINQDPLGKQGYQLRQGDNFEVWERPLSGLAWAVAMINRQEIGGPRSYTIAVASLGKGVACNPACFITQLLPVKRKLGFYEWTSRLRSHINPTGTVLLQLENTMQMSLKDLL
  Absolute increase (% WT): 24.1 % WT
  Relative increase: 1.3
  10 μM migalastat α-Gal A activity (% WT): 89.7 ± 4.4 % WT
  Baseline α-Gal A activity (% WT): 65.6 ± 2.8 % WT
  Baseline α-Gal A activity: 29386 ± 1518 nmol/mg/h
  10 μM migalastat α-Gal A activity: 39338 ± 1551 nmol/mg/h
